According to publication PMC2710984 (International Journal of Peptide Research and Therapeutics, 2006):
Square brackets hold non-standard residues; d marks the D form. Ends that are not written are not given here. Gly(cPr) = N[C@H](C(=O)O)C1CC1; Chg = N[C@H](C(=O)O)C1CCCCC1; Pip = O=C(O)[C@@H]1CCCCN1; Abu = CC[C@H](N)C(=O)O; Aib = CC(C)(N)C(=O)O

Biological target: GST–BIR3 fusion protein (XIAP BIR3 domain)
Experiment: FMAT bead-based fluorescence competition assay

[Aib]VPF-NH2 [Dmg–VPF (compound 11)]
IC50: > 1600 nM

[Chg]VPF-NH2 [Chx–VPF (compound 13)]
IC50: > 1600 nM

AV[Pip]F-NH2 [AV–Pip–F (compound 21)]
IC50: 710 nM

[Abu]VPF-NH2 [Abu–VPF (compound 9)]
IC50: 120 nM

A[Gly(cPr)]PF-NH2 [A–Cpg–PF (compound 18)]
IC50: > 1600 nM

[Gly(cPr)]VPF-NH2 [Cpg–VPF (compound 12)]
IC50: > 1600 nM
